The data set addresses c-Myc353-439 (bHLH-LZ)/Max(S) heterodimer (Homo sapiens, UniProt P01106;P61244-2 P01106:368-454,P61244-2:1-151). Briefly: EMSA; 60 nM each protein, 10 nM DNA; 1xPBS pH 7.3, 1 mM EDTA, 0.1% NP40, 5% glycerol, 1 mM DTT, 0.4 mg/mL BSA, 25 C; binding inhibited dose-dependently by 10058-F4 and analogs. The settings on record: tags: c-Myc: His6 cleaved by TEV, GGCD C-terminal extension, label: 5'-HEX on one strand. Here is the method:
Electrophoretic mobility shift Assays (EMSAs). Experiments were performed on 8% polyacrylamide:bis-acrylamide (80:1) gels in 0.5×TBE. Binding reactions were prepared in a buffer consisting of 1×PBS (pH 7.3); 1 mM EDTA; 0.1% NP40; 5% glycerol; 1 mM dithiothreitol; and 0.4 mg/mL BSA. A 22 base-pair E-box-containing double-stranded DNA oligonucleotide labeled on one strand with hexachlorofluoresceine (HEX) consisted of the following sequence:
The second method used to gauge the effects of 10058-F4 and its analogs on c-Myc-Max complexes relied on the use of a simple, three component electrophoretic mobility shift assay (EMSA). For this purpose, a recombinant c-Myc peptide, which encompasses the bHLH-LZ domain (c-_{Myc353-439}), together with the full-length His₆-tagged 151 amino acid isoform of Max [designated Max(S)] (Zhang H, et al. J Biol Chem 1997; 272; 17416-24 and Prochownik E V, et al. Proc Natl Acad Sci USA 1993; 90:960-4) were incubated in increasing concentrations of each relevant compound. The ability of the resultant heterodimer to bind a double-stranded target oligonucleotide containing a consensus E-box motif was then assessed by PAGE. […]
On the technique in general: Mobility shift assays separate free from complexed probe on a gel.

Consider one molecule from patent US20070203188, “Low molecular weight Myc-Max inhibitors” (University of Pittsburgh, published 2007).

c-Myc353-439 (bHLH-LZ)/Max(S) heterodimer, sequence (P01106 368-454, chain 1 of 2): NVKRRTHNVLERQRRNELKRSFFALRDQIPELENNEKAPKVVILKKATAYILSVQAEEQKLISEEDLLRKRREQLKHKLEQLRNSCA
c-Myc353-439 (bHLH-LZ)/Max(S) heterodimer, sequence (P61244 other isoform, or with tags, fused parts or gaps, chain 2 of 2): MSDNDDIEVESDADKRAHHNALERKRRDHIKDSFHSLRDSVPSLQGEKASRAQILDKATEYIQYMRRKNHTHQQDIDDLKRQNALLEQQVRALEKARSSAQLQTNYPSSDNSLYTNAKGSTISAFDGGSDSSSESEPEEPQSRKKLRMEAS

B1: E-box 22-mer duplex (dsDNA)
DNA 1: CACCCGGTCACGTGGCCTACAC
DNA 2: GTGTAGGCCACGTGACCGGGTG
Take B1: the binding result is “binds”.
